Patent US20020115167A1 (published 2002)

Columns and labels:
[1] = molecular target: T1, Dishevelled (Dsh) protein, Drosophila (Drosophila, UniProt P51140 1-623, progressively phosphorylated during development (sites not given)); assay: immunoprecipitation of Dsh from Drosophila embryos, in vitro kinase assay; the kinase was eluted with 700 mM NaCl
T1 construct: also called endogenous Dsh
T1 sequence (looked up): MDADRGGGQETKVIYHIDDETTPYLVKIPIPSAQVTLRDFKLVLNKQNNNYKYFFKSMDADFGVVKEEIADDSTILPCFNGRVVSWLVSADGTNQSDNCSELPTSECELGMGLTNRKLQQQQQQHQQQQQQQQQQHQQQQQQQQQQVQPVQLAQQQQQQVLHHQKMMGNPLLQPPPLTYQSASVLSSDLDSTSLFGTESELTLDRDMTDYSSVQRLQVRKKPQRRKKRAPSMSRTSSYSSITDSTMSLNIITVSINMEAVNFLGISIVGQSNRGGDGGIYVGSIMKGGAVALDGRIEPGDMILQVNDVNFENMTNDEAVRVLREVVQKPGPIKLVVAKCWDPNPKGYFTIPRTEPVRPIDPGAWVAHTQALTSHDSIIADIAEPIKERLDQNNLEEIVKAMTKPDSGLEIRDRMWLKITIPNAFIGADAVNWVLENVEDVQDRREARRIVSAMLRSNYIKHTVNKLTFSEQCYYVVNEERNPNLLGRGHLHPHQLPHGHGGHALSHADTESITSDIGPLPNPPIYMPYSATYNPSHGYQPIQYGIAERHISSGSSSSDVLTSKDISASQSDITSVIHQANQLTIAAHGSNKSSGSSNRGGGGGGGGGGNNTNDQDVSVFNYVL
Protocol: To clone the Dsh-associated kinase, Dsh was immunoprecipitated from Drosophila embryos with preimmune and affinity-purified immune serum, and subjected to an in vitro kinase assay or blotted with anti-Dsh serum. Dsh immunoprecipitates were washed with 700 mM NaCl to elute the associated kinase. The eluted kinase was recovered after dilution by precipitation with GST-fusion proteins. The kinase was purified 60,000-fold from Drosophila embryos and several peptide sequences were then used to clone the cDNA of this kinase. After screening a Drosophila embryo cDNA library with oligo probes designed based on peptide sequences, the cDNA that encodes the kinase was cloned. The cDNA clones encode a protein kinase that is homologous to the C. elegans protein PAR-1 (85% identity in the kinase domain and 42% identity overall). […] Importantly, the kinase activity that was precipitated using GST-DM increased as Dsh became progressively phosphorylated during development. The kinase activity was also present in Dsh immunoprecipitates.
(§1) To perform the kinase assay, the embryos or cells were lysed in lysis buffer (50 mM HEPES [pH 7.6], 100 mM NaCl, 0.5% Nonidet P-40, 10 mM NaF, 5 mM NaPPi, 1.5 mM MgCl₂, 1 mM EGTA, 10% glycerol, and protease inhibitors). Cleared cell lysates were incubated with GST fusion proteins immobilized on glutathione agarose beads for two to four hours at 4° C. […]

[2] = molecular target: T2, GST-fusion protein containing the C-terminal domain of Dsh (Drosophila, UniProt P51140 395-623); assay: GST-fusion pull-down from Drosophila embryo lysates, in vitro kinase assay
T2 construct: domain: C-terminal; not shown: glutathione-S-transferase (GST) fusion partner
T2 sequence (looked up): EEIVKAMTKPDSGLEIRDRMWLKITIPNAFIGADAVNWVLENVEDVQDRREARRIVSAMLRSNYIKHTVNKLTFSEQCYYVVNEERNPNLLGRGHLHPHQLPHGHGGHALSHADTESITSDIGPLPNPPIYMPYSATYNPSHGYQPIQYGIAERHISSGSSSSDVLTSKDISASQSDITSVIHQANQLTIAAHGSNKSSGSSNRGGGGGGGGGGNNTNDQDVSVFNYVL
Protocol: (§2) Dsh is known to be progressively phosphorylated in Drosophila during the stages of embryonic development known to require Wnt. The stoichiometry of this phosphorylation is high and supports the importance of this reaction. To identify the kinase that phosphorylates Dsh, various regions of Dsh were tested for their ability to physically interact with this kinase. Equal amounts of lysates prepared from staged Drosophila embryos were blotted with anti-Dsh antibody. Only the GST-fusion protein containing the middle (DM), but not the N-terminal or C-terminal domain of Dsh, interacted with this kinase activity from Drosophila embryos. The Dsh- associated kinase activity, which was precipitated with GST-DM, increased as Dsh became progressively phosphoylated during development.
as §1, with “C. The glutathione beads were washed three times with lysis buffer and once with kinase buffer (50 mM Tris [pH7.6], 10 mM MgCl₂).” for “C.”

[3] = molecular target: T3, GST-fusion protein containing the N-terminal domain of Dsh (Drosophila, UniProt P51140 1-166); assay: as above
T3 construct: domain: N-terminal; not shown: glutathione-S-transferase (GST) fusion partner
T3 sequence (looked up): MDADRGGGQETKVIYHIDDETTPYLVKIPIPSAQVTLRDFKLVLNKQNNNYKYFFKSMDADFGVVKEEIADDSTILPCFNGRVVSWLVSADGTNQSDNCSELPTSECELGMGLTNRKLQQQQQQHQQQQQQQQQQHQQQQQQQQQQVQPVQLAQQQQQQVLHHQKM
Protocol: as §2
as §1, with “C. The glutathione beads were washed three times with lysis buffer and once with kinase buffer (50 mM Tris [pH7.6], 10 mM MgCl₂).” for “C.”

B1: Drosophila PAR-1 (dPAR-1), the Dishevelled-associated kinase (enzyme)
chain: MSTAMRTTLQSVPEALPADSVSNGTASNVAAPAAPVSSATNAVPPLAAVSSTTATYATNSISTSSHSVKDQQQQQQQQQHDSANANIVSLPPTTTPVANTNTMMPIVTSSNSATSNSTAATPTPASGAAATGGVGSVSQGPATVSASAANTNHSHQHSHQHHHHVANNMTTDGARLSSNNSAVVASSAINHHHHHTPGSGVAPTVNKNVLSTHSAHPSAIKQRTSSAKGSPNMQMRSSAPMRWRATEEHIGKYKLIKTIGKGNFAKVKLAKHLPTGKEVAIKIIDKTQLNPGSLQKLFREVRIMKMLDHPNIVKLFQVIETEKTLYLIMEYASGGEVFDYLVLHGRMKEKEARVKFRQIVSAVQYCHQKRIIHRDLKAENLLLDSELNIKIADFGFSNEFTPGSKLDTFCGSPPYAAPELFQGKKYDGPEVDVWSLGVILYTLVSGSLPFDGSTLRELRERVLRGKYRIPFYMSTDCENLLRKFLVLNPAKRASLETIMGDKWMNMGFEEDELKPYIEPKADLADPKRIEALVAMGYNRSEIEASLSQVRYDDVFATYLLLGRKSTDPESDGSRSGSSLSLRNISGNDAGANAGSASVQSPTHRGVHRSISASSTKPSRRASSGAETLRVGPTNAAATVAAATGAVGAVNPSNNYNAAGSAADRASVGSNFKRQNTIDSATIKENTARLAAQNQRPASATQKMLTTADTTLNSPAKPRTATKYDPTNGNRTVSGTSGIIPRRSTTLYEKTSSTEKTNVIPAETKMASAVKSSRHFPRNVPSRSTFHSGQTRARNNTALEYSGTSGASGDSSHPGRMSFFSKLSSRFSKRPNQ
notes: Endogenous kinase from Drosophila embryo or Clone-8 cell lysates; In-gel bands of 110 kDa, 64 kDa and 130 kDa (minor) are said to be the kinase and its major fragment; also called Dsh-associated kinase; the kinase
binding result [1]: binds | binding result [2]: no binding | binding result [3]: no binding
